From US20230265146A1 (AMUNIX PHARMACEUTICALS, published 2023)

Molecular target: T1, human IL-12 receptor on HEK-Blue IL-12 reporter cells (human, UniProt P42701 24-662; Q99665 24-862)
T1 construct: whole, on cells; also called 293 HEK-IL-12 reporter cells; HEK-Blue IL12 reporter cells (InvivoGen)
Assay: Flow cytometry (MFI AF488) on HEK-Blue IL-12 reporter cells; bound protein detected with a fluorescent anti-His-tag antibody
Protocol: HEK-Blue IL-12 reporter cells (Invivogen, as described in Example 8) that express the human IL-12 receptor were used to assess binding of the IL12 constructs to the IL-12 receptor. Increasing concentrations of an exemplified “XTENylated IL12” construct (SEQ ID NO: 2) (1 μM) containing a recombinant single chain mouse IL12 with an N-terminal his-tag plus an XTEN sequence followed by a release segment sequence were incubated with 50,000 293HEK-IL-12 reporter cells that were subsequently washed and surface bound IL12 monitored by flow cytometry using a fluorescent-labelled anti-His-tag antibody for detection. Binding by the XTENylated IL12 was compared to binding of the reference IL-12 construct (SEQ ID NO:4) that contained a recombinant single chain mouse IL-12 and a C-terminal His-tag. Due to release of the His-tag from the XTENylated IL-12 following its activation with human matrix metallopeptidase 9 (MMP9), we were unable to assess IL-12 binding of its activated form in this assay. The XTEN fragment released by MMP9 cleavage retained the His-tag and was used as a specificity control for binding. As shown in FIGS. 9A-9B, the XTEN, when present in the fusion protein masked the cytokine binding to its corresponding IL12 receptor.

T1 sequence (Q99665 24-862, chain 2 of 2, other chains not shown): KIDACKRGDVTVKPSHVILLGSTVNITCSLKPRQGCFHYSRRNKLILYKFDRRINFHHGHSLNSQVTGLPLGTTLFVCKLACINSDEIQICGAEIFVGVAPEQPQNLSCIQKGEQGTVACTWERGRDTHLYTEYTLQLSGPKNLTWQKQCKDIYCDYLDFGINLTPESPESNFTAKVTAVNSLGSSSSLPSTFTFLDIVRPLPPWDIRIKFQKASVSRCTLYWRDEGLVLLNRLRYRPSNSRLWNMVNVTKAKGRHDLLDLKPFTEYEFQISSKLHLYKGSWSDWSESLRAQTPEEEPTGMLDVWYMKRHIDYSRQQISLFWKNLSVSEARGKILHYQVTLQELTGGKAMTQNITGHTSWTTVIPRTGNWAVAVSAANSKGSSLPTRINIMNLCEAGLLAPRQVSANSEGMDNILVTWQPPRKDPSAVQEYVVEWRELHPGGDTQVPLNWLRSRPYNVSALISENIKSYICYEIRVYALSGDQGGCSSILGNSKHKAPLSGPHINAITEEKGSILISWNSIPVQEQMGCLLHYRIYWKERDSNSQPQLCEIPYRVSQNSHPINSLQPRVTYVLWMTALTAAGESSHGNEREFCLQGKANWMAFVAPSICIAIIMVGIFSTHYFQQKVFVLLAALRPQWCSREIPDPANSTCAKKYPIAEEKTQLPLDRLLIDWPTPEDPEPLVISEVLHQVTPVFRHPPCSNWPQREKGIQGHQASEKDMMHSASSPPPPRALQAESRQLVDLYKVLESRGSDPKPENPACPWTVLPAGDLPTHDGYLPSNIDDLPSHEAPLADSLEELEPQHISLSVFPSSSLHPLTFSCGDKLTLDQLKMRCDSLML

EC50: 4.5 nM
B1: Reference IL12 construct (SEQ ID NO: 4) (ligand)
chain: MWELEKDVYVVEVDWTPDAPGETVNLTCDTPEEDDITWTSDQRHGVIGSGKTLTITVKEFLDAGQYTCHKGGETLSHSHLLLHKKENGIWSTEILKNFKNKTFLKCEAPNYSGRFTCSWLVQRNMDLKFNIKSSSSSPDSRAVTCGMASLSAEKVTLDQRDYEKYSVSCQEDVTCPTAEETLPIELALEARQQNKYENYSTSFFIRDIIKPDPPKNLQMKPLKNSQVEVSWEYPDSWSTPHSYFSLKFFVRIQRKKEKMKETEEGCNQKGAFLVEKTSTEVQCKGGNVCVQAQDRYYNSSCSKWACVPCRVRSGGGGSGGGGSGGGGSRVIPVSGPARCLSQSRNLLKTTDDMVKTAREKLKHYSCTAEDIDHEDITRDQTSTLKTCLPLELHKNESCLATRETSSTTRGSCLPPQKTSLMMTLCLGSIYEDLKMYQTEFQAINAALQNHNHQQIILDKGMLVAIDELMQSLNHNGETLRQKPPVGEADPYRVKMKLCILLHAFSTRVVTINRVMGYLSSAHHHHHHHH
